Legend:
CTLA4-Fc fusion protein [1] = target: T1, CTLA4-Fc fusion protein (human, biotinylated where used as CTLA4-Fc-Biotin (Examples 5.1-5.3)); assay: ELISA, CTLA4-Fc coated, 10 ng VHH/well
T1 construct: expressed in HEK293 cells; also called human CTLA4-Fc protein; CTLA4-Fc antigen protein
Description: (§1) Plates were coated with CTLA4-Fc fusion protein overnight at 4° C. and 10 ng of the heavy chain single-domain antibody obtained in Example 2.1 (the control was a single domain antibody not binding to the CTLA4-Fc protein) was added to each well and allowed to react for 1 hour at room temperature. After washing, primary antibody anti-His tag antibody (purchased from Beijing Kangwei Century Biotechnology Co., Ltd.) was added and reacted for 1 hour at room temperature. After washing, a secondary goat anti-mouse horseradish peroxidase-labeled antibody (Yiqiao Shenzhou, Cat: SSA007200) was added and reacted for 1 hour at room temperature. After washing, chromogenic agent was added and the absorbance was read at 405 nm.

Fc protein = target: T2, Fc protein; assay: ELISA, Fc protein coated, 10 ng VHH/well
T2 construct: Counter-screen for the Fc part of CTLA4-Fc
Description: (§2) Plates were coated with Fc protein overnight at 4° C. and 10 ng of the heavy chain single domain antibody obtained in Example 2.1 was added to each well (control was a single domain antibody against other unrelated targets) and allowed to react for 1 hour at room temperature. After washing, an rabbit anti-human Fc antibody (purchased from Shanghai Pu Xin Biotechnology Co., Ltd.) was added and reacted for 1 hour at room temperature. After washing, goat anti-rabbit horseradish peroxidase labeled antibody (purchased from Shanghai Pu Xin Biotechnology Co., Ltd.) was added and reacted at room temperature for 1 hour. After washing, chromogenic agent was added and the absorbance was read at 405 nm.

CTLA4-Fc fusion protein [2] = target: T1, CTLA4-Fc fusion protein; assay: ELISA OD ratio, value equals OD(CTLA4)/OD(Fc)
Description: as §1, §2

CTLA4-Fc fusion protein [3] = target: T1, CTLA4-Fc fusion protein; assay: ELISA OD ratio, value equals OD(CTLA4)/OD(blank)
Description: as §1

CTLA4-Fc fusion protein [4] = target: T1, CTLA4-Fc fusion protein; assay: competitive ELISA: CD80-Fc-Biotin signal on coated CTLA4-Fc with 500 ng VHH/well; competitor CD80-Fc-Biotin
Description: SA-HRP (purchased from Sigma) was added and allowed to react for 1 hour at room temperature. After adding chromogenic solution, absorbance was read at 405 nm wavelength.

Binder | OD (against CTLA4) (CTLA4-Fc fusion protein [1]) | OD (against Fc) (Fc protein) | ODa/OD blank (CTLA4-Fc fusion protein [2]) | ODa/ODb (CTLA4-Fc fusion protein [3]) | OD (CTLA4-Fc fusion protein [4])
CTLA4 heavy chain single domain antibody No. C22 (VHH, Camel VHH expressed in E. coli (PET32b), nickel-purified) VHH: QVQLQESGGGSVQAGGSLRLSCTVSQHTSRYYYMAWFRQAPGKEREGVASIWTGGGTPGYADSAKGRFTISTDNAKNTIYLQMNSLKPEDTAMYYCAADDRGGRWSLGTMAVGGYKYWGQGTQVTVSS | 0.848 OD405 | 0.06 OD405 | 14.1 | 30.3 | 2.47 OD405
CTLA4 heavy chain single domain antibody No. J78 (VHH, Camel VHH expressed in E. coli (PET32b), nickel-purified) VHH: QVQLQESGGGSVQAGGSLRLSCTVSQHTSRYYYMAWFRQAPGKEREGVASIWTGGGTPGYADSAKGRFTISADNAKNTIYLQMNSLKPEDTAMYYCAADDRGGRWSLGTMAVGGYKYWGQGTQVTVSS | 0.632 OD405 | 0.121 OD405 | 5.2 | 22.6 | 2.41 OD405
CTLA4 heavy chain single domain antibody No. 128 (VHH, Camel VHH expressed in E. coli (PET32b), nickel-purified) VHH: QVQLQESGGGSVQAGGSLKLSCAASGYTDYTYNTSCMGWFRQTPGKERERVATVNKVGSTIYADSVKGRFTISKDNVKNTLYLQMNSLKPEDTAMYYCAARGSWSCSQFWGDFGYWGQGTQVTVSS | 1.27 OD405 | 0.036 OD405 | 35.2 | 45.3 | 0.893 OD405
CTLA4 heavy chain single domain antibody No. C16 (VHH, Camel VHH expressed in E. coli (PET32b), nickel-purified) VHH: QVQLQESGGGSVQAGGSLTLSCAASGYTGDLVAWFRQTPGKEREGVAAISRTGLTTYYADSVKGRFTISQDTAKNTGYLQMNSMKPEDTAMYYCVAGWHVGGTWYKTSSYDYWGQGTQVTVSS | 1.79 OD405 | 0.053 OD405 | 33.7 | 63.8 | 1.89 OD405
CTLA4 heavy chain single domain antibody No. C2 (VHH, Camel VHH expressed in E. coli (PET32b), nickel-purified) VHH: QVQLQESGGGSVQPGGSLRLSCAVSGFTFSGYCMAWVRQAPGKGLEWVASIHRRDGSTDYADSVKGRFTISKDNSKNTLYLQMSSLKPEDTAVYYCAADPARLSCSGRVNSEYKYRGQGTQVTVSS | 1.23 OD405 | 0.035 OD405 | 35.2 | 44 | 2.52 OD405
CTLA4 heavy chain single domain antibody No. J42 (VHH, Camel VHH expressed in E. coli (PET32b), nickel-purified) VHH: QVQLQESGGGSVQAGGSLRLSCAASGYTYSSYNSNCMGWFRQAPGKEREGVAAIDSDGSTSYADSVKGRFTISKDNAKNTLYLQMNSLKPEDTAMYYCAASPRTCEVFSLGGSWHLFGYWGQGTQVTVSS | 1.09 OD405 | 0.045 OD405 | 24.1 | 38.8 | 0.94 OD405
CTLA4 heavy chain single domain antibody No. 138 (VHH, Camel VHH expressed in E. coli (PET32b), nickel-purified) VHH: QVQLQESGGGSVQAGGSLTLSCAASGYANSNTCMGWFRQAPGKERERVAAISGVGTGTYYADSVKGRFTISRDNGKNTLFLQMNSLKPEDTAMYYCAAAPEGRAWCSRDPSGYNYWGQGTQVTVSS | 1.84 OD405 | 0.041 OD405 | 45 | 65.8 | 1.92 OD405
CTLA4 heavy chain single domain antibody No. J35 (VHH, Camel VHH expressed in E. coli (PET32b), nickel-purified) VHH: QVQLQESGGGSVQAGGSLRLSCAASGYTSGYYVMGWYRQAPGKLREFVSSIDSNGGTMYADSVKGRFTISQDNAKNTAHLQMNSLKPEDTAMYYCKRDSPGNFYWGQGTQVTVSS | 0.823 OD405 | 0.036 OD405 | 22.9 | 29.4 | 2.57 OD405
CTLA4 heavy chain single domain antibody No. 119 (VHH, Camel VHH expressed in E. coli (PET32b), nickel-purified) VHH: QVQLQESGGGSVQAGGSLRLSCAASEYTYHTNCMGWFRQAPGKEREGLAVMNPSGGVTYFADSVKGRFTISRDNAKNTVYLQMNSLKPEDTAMYYCAAGRGRCSGYSGYYNEWGQGTQVTVSS | 0.537 OD405 | 0.037 OD405 | 14.5 | 19.2 | 2.53 OD405
CTLA4 heavy chain single domain antibody No. J39 (VHH, Camel VHH expressed in E. coli (PET32b), nickel-purified) VHH: QVQLQESGGGSVQAGGSLRLSCAPSRYSGALMGWFRQAPGKEREGVAVISRSGLTTYYADSVKGRFTISQDTAKNTIYLQMNSMKPEDTAMYYCVAAPEARAWSSRDPTGYNYWGQGTQVTVSS | 1.75 OD405 | 0.042 OD405 | 41.6 | 62.4 | 2.13 OD405
CTLA4 heavy chain single domain antibody No. J5 (VHH, Camel VHH expressed in E. coli (PET32b), nickel-purified) VHH: QVQLQESGGGSVQAGGSLRLSCAASGYTYSTYCMAWFRQVPEKERERVASIYTGGGTTYYADSVKGRFTISLDNAKNTLYLQMNSLKPEDTAMYYCAKSAARCDSSRDVNRLGYWGQGTQVTVSS | 1.21 OD405 | 0.036 OD405 | 33.6 | 43.2 | 2.5 OD405
CTLA4 heavy chain single domain antibody No. C38 (VHH, Camel VHH expressed in E. coli (PET32b), nickel-purified) VHH: QVQLQESGGGSVQAGGSLRLSCAASRYTASSNCMAWFRQAPGKEREGVATIYNGGGSTAYADSVKGRFTISQDNAKNTVYLQMNSLKPEDTAMYYCGAGSPRFCASATMTGGHHLFGYWGQGTQVTVSS | 1.02 OD405 | 0.045 OD405 | 22.7 | 36.5 | 2.28 OD405
CTLA4 heavy chain single domain antibody No. J37 (VHH, Camel VHH expressed in E. coli (PET32b), nickel-purified) VHH: QVQLQESGGGSVQAGGTLRLSCAVSGVTYSPHCMGWFRQAPGKEREGVAAIYNGGGSTAYADSVKGRFTISQDNAKNTVYLQMNSLKPEDTAMYYCGAGSPRFCASATMTGGHHLFGYWGQGTQVTVSS | 1.2 OD405 | 0.034 OD405 | 35.3 | 42.9 | 1.06 OD405
CTLA4 heavy chain single domain antibody No. J17 (VHH, Camel VHH expressed in E. coli (PET32b), nickel-purified) VHH: QVQLQESGGGSVQAGGSLRLSCAASGFTLSSYTMTWLRQAPGKGLEWVSTINSGGSTSYADSVKGRFAISRDNAKNILYLQLNSLEIEDTGMYYCQGGLTQRGQGTQVTVSS | 1.4 OD405 | 0.046 OD405 | 30.4 | 50 | 2.53 OD405
CTLA4 heavy chain single domain antibody No. J29 (VHH, Camel VHH expressed in E. coli (PET32b), nickel-purified) VHH: QVQLQESGGGLVQPGGSLRLSCAASGFTISSYTMTWLHQAPGKGLEWVSTINSGGSTAYADSVKGRFAISRDNAKNTLYLQLNSLKIEDTGMYYCQGGLTQRGQGTQVTVSS | 1.44 OD405 | 0.036 OD405 | 40 | 51.4 | 2.5 OD405
CTLA4 heavy chain single domain antibody No. 165 (VHH, Camel VHH expressed in E. coli (PET32b), nickel-purified) VHH: QVQLQESGGGSVQTGGSLRLSCVVSGHSYSRKCMGWFRQAPGKEREEVATFYTGDGRTYYADSVKGRFTISQDNAKNTLYLQMNSLKPEDTGMYFCAADRRVNCDLLQSTFYNYRGQGTQVTVSS | 1.21 OD405 | 0.051 OD405 | 23.8 | 43.4 | 1.84 OD405
CTLA4 heavy chain single domain antibody No. J69 (VHH, Camel VHH expressed in E. coli (PET32b), nickel-purified) VHH: QVQLQESGGGLVQPGGSLRLSCAASGFTLSSYSMTWLRQAPGKGLEWVSTINSGGSTSYADSVKGRFAISRDNAKNTLYLQLNSLEIEDTGMYYCQGGLTRGQGTQVTVSS | 0.635 OD405 | 0.037 OD405 | 17.2 | 22.7 | 2.34 OD405
CTLA4 heavy chain single domain antibody No. 116 (VHH, Camel VHH expressed in E. coli (PET32b), nickel-purified) VHH: QVQLQESGGGLVQPGGSLRLSCEASGFTFSSYTMTWLRQAPGKGLEWVSTINSGGSTSYADSVKGRFAISRDNAKNTLYLQLNSLEIEDTGMYYCQGGLTRGQGTQVTVSS | 0.234 OD405 | 0.046 OD405 | 5.1 | 8.4 | 2.58 OD405
CTLA4 heavy chain single domain antibody No. C29 (VHH, Camel VHH expressed in E. coli (PET32b), nickel-purified) VHH: QVQLQESGGGSVQAGGSLRLSCAVSGYTYSGYCMGWFRQAPGKEREGVAAISRGDGSPGYADSVKGRFTISQDNAKNTLYLQMNSLKPEDTAMYYCAADVIPTETCSYGSWSGPNGYWGQGTQVTVSS | 1.51 OD405 | 0.085 OD405 | 17.8 | 54 | 2.43 OD405
